Source: US20220204602A1 (published 2022)
Values joined by “and” are separate entries in the source; they are usually repeats but may differ in a detail not shown here. Identical values can stand only once.

T1: Cyno FcRn (Cynomolgus, UniProt Q8SPV9 24-297; Q8SPW0 21-119)
T1 chain 1: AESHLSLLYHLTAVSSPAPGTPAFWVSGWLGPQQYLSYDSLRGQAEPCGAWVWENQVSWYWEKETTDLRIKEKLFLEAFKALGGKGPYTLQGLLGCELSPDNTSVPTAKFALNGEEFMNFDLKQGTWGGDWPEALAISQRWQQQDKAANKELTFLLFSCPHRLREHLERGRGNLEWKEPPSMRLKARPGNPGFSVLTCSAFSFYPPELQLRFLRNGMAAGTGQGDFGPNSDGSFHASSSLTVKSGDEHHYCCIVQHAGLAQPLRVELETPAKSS
T1 chain 2: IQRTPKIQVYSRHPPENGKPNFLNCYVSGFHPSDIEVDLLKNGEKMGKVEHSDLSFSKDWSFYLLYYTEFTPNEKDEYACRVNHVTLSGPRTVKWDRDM


How the values were obtained:
[1] = molecular target: T2, human complement C5 (human, UniProt P01031 19-673; P01031 678-1676); test: competition ELISA; pH 7.4
[2] = molecular target: T2, human complement C5; test: competition ELISA; pH 6.0
[3] = molecular target: T1, Cyno FcRn; test: SPR (Biacore); pH 6.0

EC50 [1]	EC50 [2]	Ka [3]	Binder
2.08 µg/mL and 1.62 µg/mL and 2.33 µg/mL	–	–	parental mAb H1-8/L1-9 ScFV (scFv) MDWTWVFLFLLSVTAGVHSQVQLVQSGAEVKKPGASVKVSCKASGYTITDYHLDWVRQAPGQGLEWMGDISPNYGYTIYNQKFKDRVTMTTDTSTSTAYMELRSLRSDDTAVYYCARRDIRYSGNSYKWYFDVWGQGTMVTVSSMEAPAQLLFLLLLWLPDTTGDIQLTQSPSFLSASVGDRVTITCRTSKSISKHLAWYQQKPGKAPKLLIYSGSTLQSGVPSRFSGSGSGTEFTLTISSLQPEDFATYYCQQHNEYPYTFGQGTKLEIK
0.404 µg/mL	4.97 µg/mL	–	scFV mutant clone 14C6 from mAb 1819 affinity maturation (T to H mutation in position 9 of VH CDR2) (scFv) MDWTWVFLFLLSVTAGVHSQVQLVQSGAEVKKPGASVKVSCKASGYTITDYHLDWVRQAPGQGLEWMGDISPNYGYTIYNQKFKDRVTMTTDTSTSTAYMELRSLRSDDTAVYYCARRDIRYSGNSYKWYFDVWGQGTMVTVSSMEAPAQLLFLLLLWLPDTTGDIQLTQSPSFLSASVGDRVTITCRTSKSISKHLAWYQQKPGKAPKLLIYSGSTLQSGVPSRFSGSGSGTEFTLTISSLQPEDFATYYCQQHNEYPYTFGQGTKLEIK
–	–	7.13e+07 M⁻¹	anti-C5 mAb FMEH-IgG4PLA (antibody) heavy: not shown light: DIQLTQSPSFLSASVGDRVTITCRTSKSISKHLAWYQQKPGKAPKLLIYSGSTLQSGVPSRFSGSGSGTEFTLTISSLQPEDFATYYCQQHNEYPYTFGQGTKLEIK
